The molecules below were run on HEK293 cells. Settings: luminescence from secreted Gluc in supernatant 24 hours after transfection of HEK293 cells; circular RNA encoding Gluc with the named IRES (UTR truncated to 675 nt).
Type: cell-based, human

Molecule	Expression
Rabbit Kobuvirus (nucleic acid, listed as Kobuvirus sp.) DNA: GGGCTATAAATATGGGCATTCCTCTTCCCCCTTCCCCTTTTGAAGATGAGTGCGCATATTCTTGACTCCGCCTGGATTGGCCGCCCAAGGCGTGAACAAGCAGCTAGGCCACCATGACACTGCGGTGGTGTCCGAACCCGCGGGTGCCTTCACGGGCACCTGTGGTATGTAGGACTCCCACCGTGGTCTTCCCTTTCCCCCTCAATCTTTCCCCCTGGTTCGACTAACGGGACCAGTGCTGGAACCTGTCCGGTGAACGGTATAGCAGGCCCCCCCGGCAGAAACACCCGGTGCTTACCCCTTAAGGCTAGCCCCCTTCCATGAATTTGGTTGGGGCAACTAGTGGGTGTACAGTTGGCGTGAACCCTCCGGTCTAGGAGTGCTCTTGCCCAATCCTCTGTGTGTGCCTTGCAGTAGGGACTGGCAATCCTTCGCGTAGGTGATCCGCTGTGCCATGCCATCCTGGCGACAGGAGGCCCAGTGTGCGCAACCTACGTCCCTTCTGGGTGCTGCATTGCATTACCTTTGGAGTAAGCTTGGTGTGCCGAAACCCCAGGGTTTACGTACCACTCGTGGTGTGAGGAATGTGCCGCAGGTACCCCATCCTTGAGGTGGGATCTGAGCGGTAGCTAATTGTCTAGCACCACTTTCTTCCTTTTTTCTTTGCTGGTCACG	3.73E+07
Grusopivirus B (nucleic acid, Grusopivirus B) DNA: GCCATCCGTAGGTTCTGGTAAGGTTCCATCAACTGTTGGGGCGCTAGTTGCTATGACCGCATTCACGGACGGATGATTTATAGTATCACCCAATCCGGGCACAACTTCTTTAGCCACTTCTTCCACATTACTAAGGGCTCTCTTGCCGAGTTTCAACGTCTAGTCCACGACACGGACCTTCCTACTTTTCTATCTTCTTATTTTCTCTACTAAATTGGTATCTGGTACTGAAGATATGCGGATTGTGATTTTGTGCCTGTCTAAACTAACCCTATTCTAGGGTTAGGTGGGTACCATATACTAATGGTGAACAGGATTACCTATGTATCCATTAGTCCCTATGGATCTGGCGACCCACAAACTCATGTTCATAGAGAGGCTAAGCTGAGTGCTCGCCGAATAAGCATTGCTTCAGGTGCCGACTATTGTCTGGAAACCACTCAGTGATAGCTATAGGGGGGGGCCCCGTAGCATCTGCCTTACTGCCTGATAGGGTGGCGGCTGGTCCATGAACATGCAGTAACCAGTTGACTTGAC	2.12E+05
Porcine Kobuvirus XX (nucleic acid, listed as Kobuvirus sp.) DNA: CCACCGTTACTTCACTCCACTCCCTCGGGACTGGTTTGGAGGAGCATAACAGGGCTTCCCATCCCTGTTCACCCTCAATACCACCCACCCTTTCCCTCAACCATCCCTATCCACACCCCACTGACTGATTCCCTTGGATTTTGACCTCAGAACGCCTACTTGACCTCCCACTTGCCTTTCCCTTCTCGGATTGCCGGTGGTGCCTGGCGGAAAAAGCACAAGTGTGTTGCAGGCTACCAAACTCCTACCCGACAAAGGTACGTGTCCGCGTGCTGAGTAATGGGATAGGAGATGCCTACAACAGGCTCGCCCATGAGTAGAGCATGGACTGCGGTGCATGTGACTTCGGTCACCACGGGCATAGCATTGCTCACCCGTGAATCAAGTCATTGAGATTCCTCTGACCTCTGAAGTGCACTGTGGTTGCGTGGCTGGGAATCCACGCTTGACCATGTACTGCTTGATAGAGTCGCGGCTGGCCGACTCATGGGTTAAAGTCAGTTGATAAGACAC	1.32E+07
Murine Kobuvirus 1 (nucleic acid, listed as Kobuvirus sp.) DNA: GTAACTTCAAGTGTGTGTGCTCGTAATCTTGACTCCTGCCGGAATGCCGCCCGGTTCAGTGAACAAACAGCTAGGCAAGTCCCTCCCTTCCCCTGTGGTCGGTTCTCACCGGCCACCATCCCTCCCCCAGCCTGACGTGTTACAGGCTGTGCAAAGCCCCCGCGAAAGCTGCTCACGTGGCAATTGTGGGTCCCCCCTTTGTCAAGACACCGAGTCTTTCTCCCTTAAGGCTAGCCCGGTCCCACGAACGTGGAACTGGCAACTAGTGGTGTCACTACACGCCTCCGACCTCGGACGCGGAGTGCTGTTCCCCAAGCTGTAACCCTGACCCAAGACTGTGCTGCCTGGCAAGCACCGTCTGGGAAGATGTTCCGCTGTGGCTGCCAAACCTGGTAACAGGTGCCCCAGTGTGTGTAGTCTTCCTCCAGTCTCCGGACTGGCAGTCTTGTGTAAAGATGCAGTGTAAGGTTCAAGTGCCAAATCCCTGGAAGGAGTGACCCTCTACTGCCCTAGGAATGCTGTGCAGGTACCCCCAACTTCGGTTGGGGATCTGAGCACAGGCTAATTGTCTACGGGTAGTTTCATTTCCCATCCTCTCTTTTTTGGCATC	1.60E+07
Caprine Kobuvirus 12Q108 (nucleic acid, listed as Kobuvirus sp.) DNA: GGGGGTGGGGGGGGCCTCGGCCCCCTCACCCTCTTTTCCGGTGGCCACGCCCGGGCCACCGATACTTCCCTTCACTCCTTCGGGACTGTTGGGGAGGAACACAACAGGGCTCCCCTGTTTTCCCATTCCTTCCCCCTTTTCCCAACCCCAACCGCCGTATCTGGTGGCGGCAAGACACACGGGTCTTTCCCTCTAAAGCACAATTGTGTGTGTGTCCCAGGTCCTCCTGCGTACGGTGCGGGAGTGCTCCCACCCAACTGTTGTAAGCCTGTCCAACGCGTCGTCCTGGCAAGACTATGACGTCGCATGTTCCGCTGCGGATGCCGACCGGGTAACCGGTTCCCCAGTGTGTGTAGTGCGATCTTCCAGGTCCTCCTGGTTGGCGTTGTCCAGAAACTGCTTCAGGTAAGTGGGGTGTGCCCAATCCCTACAAAGGTTGATTCTTTCACCACCTTAGGAATGCTCCGGAGGTACCCCAGCAACAGCTGGGATCTGACCGGAGGCTAATTGTCTACGGGTGGTGTTTCCTTTTTCTTTTCACACAACTCTACTGCTGACAACTCACTGACTATCCACTTGCTCTCTTGTGCCTTTCTGCTCTGGTTCAAGTTCCTTGATTGTTTTTGACTGCTTTTCACTGCTTTTCTTCTCACAATCCTTGCTCAGTTCAAAGTC	2.87E+08
Aalivirus (nucleic acid, listed as Aalivirus sp.) DNA: TTGAAAGGGGGTGCTCAGGGTAGCTCCCTGAGCTCTTCCCTCCACCCTCTTTCAACGTCTGGCCCACGATACGGGCCACCTTTCAATCTTAACTAACTATCCCTTTAATCTATTTGGATTTTCTGGTTTAGAATAATTTGGAACACATAATTGGATTATCTTTTAGGATTGTGGATAGGATTTGTTCGGGATATCACTCCCTTCCTGTGCTAACACATATTCTAATTCCCTCCTTTGTCTATTATCTCTTGGAGGTGGTGCTGAAATATTGCAAGCCACTTGAGTGTATAGATGAAGTAGGCTCAAGATGAATGTTGTGTTACTCAAGGCAAGTGTAGCTATCACTAAGATATTGGTAACGTGAAACGGATTACCGGTAGTAGCGTGATCTTCCGTCTTAGTGCTCTAGTGACTAGAGGACAACGACATGGCATCACATATCTTAACCCTCCAGTTTTGGCATCCGGGACAGAATGGGCTGGATATCCGCTTTCTTTCTGGGGTATGTGATGGGTGGTATTGGGGTAACCACCTTGACCATGACGCTCGATAAGAGTGACCGCCTGATCATTGAAACCTCTAGTATAAAATTCAGGCTGAAATC	2.65E+05
Grusopivirus A (nucleic acid, Grusopivirus A) DNA: TGCCTGAGTAGGATTGTGAATTTAGGTATGAGAGGGTTAGCCAACCCATTCTGAACCATAATAGATACGTCAATCTGAATCCATCTAAATCTATCTCTTAGGCAGTGGTGCTGAAATATTGCAAGCTACTAGGGATAGACGTGATCTGATTCAAGAACCTATCTAATGTGGTGATGAGAAGGCTAGGTTTATCCATAGTAATCCCTTGTTCTGAACAGGCAATGCACATGCTCTAGTAGGATCTCGGGCTCTGCGATTGGCTCTAAACCGACCAATCCAGGTAGAGGCACTAAGTGTAGGACTTGCCAAAATGTATTACATGCTGGTACCGACTCACTAGTCTGGAAACTCCACACTGAAAGTGACTGGGGGGGGCCCCATCACATTTGTGCTACTGCTTGATAGAGTTGCGGCTGGTCAACTTGGATTGGTATAACCAGTTGAA	1.09E+05
